The results in this text go back to article PMC12443421.

In data set [1] the target is T1, KDM5A-MutR (UniProt P29375 1-801, R210A;R217A;R219A;R220A;R232A;R264A;R265A;R266A;R271A;R280A;R282A).
T1 sequence: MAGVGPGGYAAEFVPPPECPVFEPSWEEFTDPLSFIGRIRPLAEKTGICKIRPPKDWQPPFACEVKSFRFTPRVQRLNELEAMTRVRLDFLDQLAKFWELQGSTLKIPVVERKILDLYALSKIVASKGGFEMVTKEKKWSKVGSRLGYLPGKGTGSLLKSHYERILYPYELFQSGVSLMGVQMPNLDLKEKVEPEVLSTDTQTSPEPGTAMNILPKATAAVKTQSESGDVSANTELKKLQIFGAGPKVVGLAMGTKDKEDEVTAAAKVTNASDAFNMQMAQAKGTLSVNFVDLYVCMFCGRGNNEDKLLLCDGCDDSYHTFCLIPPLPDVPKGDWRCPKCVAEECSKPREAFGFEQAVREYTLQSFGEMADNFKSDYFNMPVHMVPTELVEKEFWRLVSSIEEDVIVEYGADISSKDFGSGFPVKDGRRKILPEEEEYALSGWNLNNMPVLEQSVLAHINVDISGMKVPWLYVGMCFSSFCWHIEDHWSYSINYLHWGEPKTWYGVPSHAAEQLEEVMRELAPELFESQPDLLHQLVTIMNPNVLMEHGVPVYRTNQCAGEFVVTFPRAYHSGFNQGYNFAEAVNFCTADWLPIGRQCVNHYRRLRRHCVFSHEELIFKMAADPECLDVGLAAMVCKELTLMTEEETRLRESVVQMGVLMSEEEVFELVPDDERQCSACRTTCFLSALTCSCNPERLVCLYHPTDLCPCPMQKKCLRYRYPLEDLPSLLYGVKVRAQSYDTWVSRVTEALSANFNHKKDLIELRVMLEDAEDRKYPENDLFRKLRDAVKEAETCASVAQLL
Briefly: EMSA; Nucleosome EMSA: 100 nM nucleosome, 50 mM HEPES pH 7.5, 50 mM KCl, 1 mM BME, 0.01% Tween-20, 0.01% BSA, 5% sucrose, 1 h on ice, gel at 4 C; DNA EMSA: 100 nM DNA, TE with 10% glycerol, gel at 4 C. To be noted: protein: recombinant; tags: 6xHis removed by TEV; blunt.

Data set [2] has as its target T2, KDM5A-K152E (UniProt P29375 1-801, K152E).
T2 sequence: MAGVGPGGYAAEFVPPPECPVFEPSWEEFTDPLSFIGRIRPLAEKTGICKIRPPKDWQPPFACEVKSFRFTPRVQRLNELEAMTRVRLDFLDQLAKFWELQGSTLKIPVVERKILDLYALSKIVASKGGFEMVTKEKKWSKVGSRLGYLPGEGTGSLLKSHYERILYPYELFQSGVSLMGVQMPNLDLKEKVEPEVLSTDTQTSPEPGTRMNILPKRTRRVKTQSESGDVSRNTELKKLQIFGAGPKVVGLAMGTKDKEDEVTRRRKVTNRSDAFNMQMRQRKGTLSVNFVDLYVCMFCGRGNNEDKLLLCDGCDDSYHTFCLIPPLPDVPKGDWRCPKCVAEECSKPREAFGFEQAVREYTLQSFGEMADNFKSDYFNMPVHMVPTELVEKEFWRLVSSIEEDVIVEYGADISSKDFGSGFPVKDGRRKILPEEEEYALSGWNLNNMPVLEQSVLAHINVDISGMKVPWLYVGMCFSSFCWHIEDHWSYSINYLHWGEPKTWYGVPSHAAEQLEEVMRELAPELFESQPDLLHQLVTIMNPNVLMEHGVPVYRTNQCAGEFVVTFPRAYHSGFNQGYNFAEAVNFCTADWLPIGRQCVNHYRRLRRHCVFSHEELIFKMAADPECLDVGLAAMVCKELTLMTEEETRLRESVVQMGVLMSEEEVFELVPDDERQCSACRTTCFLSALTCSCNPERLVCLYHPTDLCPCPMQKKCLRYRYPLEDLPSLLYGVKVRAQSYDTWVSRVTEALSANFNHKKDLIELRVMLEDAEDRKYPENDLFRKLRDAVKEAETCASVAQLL
The data set is described as above. To be noted: protein: recombinant; tags: 6xHis removed by TEV; blunt.

B1: ARID-C1 (dsDNA)
DNA 1: GGGCTCCCGCCCCACGAAAAG
DNA 2: CTTTTCGTGGGGCGGGAGCCC
Take B1: the binding signal in data set [1] and in data set [2] was ~3 fold lower affinity than KDM5A-CAT throughout.
